Assay results reported in article doi:10.1101/2023.09.23.559074, “Direct ionic stress sensing and mitigation by the transcription factor NFAT5” (bioRxiv, 2023).

B1: GFP-CTD (superfolder GFP fused to the C-terminal domain of NFAT5, a.a. 544-1531) (domain or fragment, human, UniProt O94916 544-1531, looked up)
chain: DPAAAGALNVNVKKEISSPARPCSFEEAMKAMKTTGCNLDKVNIIPNALMTPLIPSSMIKSEDVTPMEVTAEKRSSTIFKTTKSVGSTQQTLENISNIAGNGSFSSPSSSHLPSENEKQQQIQPKAYNPETLTTIQTQDISQPGTFPAVSASSQLPNSDALLQQATQFQTRETQSREILQSDGTVVNLSQLTEASQQQQQSPLQEQAQTLQQQISSNIFPSPNSVSQLQNTIQQLQAGSFTGSTASGSSGSVDLVQQVLEAQQQLSSVLFSAPDGNENVQEQLSADIFQQVSQIQSGVSPGMFSSTEPTVHTRPDNLLPGRAESVHPQSENTLSNQQQQQQQQQQVMESSAAMVMEMQQSICQAAAQIQSELFPSTASANGNLQQSPVYQQTSHMMSALSTNEDMQMQCELFSSPPAVSGNETSTTTTQQVATPGTTMFQTSSSGDGEETGTQAKQIQNSVFQTMVQMQHSGDNQPQVNLFSSTKSMMSVQNSGTQQQGNGLFQQGNEMMSLQSGNFLQQSSHSQAQLFHPQNPIADAQNLSQETQGSLFHSPNPIVHSQTSTTSSEQMQPPMFHSQSTIAVLQGSSVPQDQQSTNIFLSQSPMNNLQTNTVAQEAFFAAPNSISPLQSTSNSEQQAAFQQQAPISHIQTPMLSQEQAQPPQQGLFQPQVALGSLPPNPMPQSQQGTMFQSQHSIVAMQSNSPSQEQQQQQQQQQQQQQQQQQSILFSNQNTMATMASPKQPPPNMIFNPNQNPMANQEQQNQSIFHQQSNMAPMNQEQQPMQFQSQSTVSSLQNPGPTQSESSQTPLFHSSPQIQLVQGSPSSQEQQVTLFLSPASMSALQTSINQQDMQQSPLYSPQNNMPGIQGATSSPQPQATLFHNTAGGTMNQLQNSPGSSQQTSGMFLFGIQNNCSQLLTSGPATLPDQLMAISQPGQPQNEGQPPVTTLLSQQMPENSPLASSINTNQNIEKIDLLVSLQNQGNNLTGSF
notes: NFAT5 (TonEBP), human, 1531 a.a. protein; C-terminal domain (CTD), a.a; 544-1531; The methods for the bacterial construct (pET-28a) say only 'NFAT5 CTD'; also called GFP-NFAT5 CTD; NFAT5 GFP-CTD; not shown: sfGFP, N-terminal, kept
B2: untagged NFAT5 CTD (CTD protein lacking the GFP tag) (domain or fragment, human, UniProt O94916 544-1531, looked up)
chain: B1 chain
notes: NFAT5 (TonEBP), human, 1531 a.a. protein; C-terminal domain (CTD), a.a; 544-1531; source: E. coli BL21 (DE3) pLysS, purified from inclusion bodies (8 M urea extraction, Superdex 200)
B3: GFP-PLD (superfolder GFP fused to the prion-like domain of NFAT5, a.a. 999-1454) (domain or fragment, human, UniProt O94916 999-1454, looked up)
chain: QIQNSVFQTMVQMQHSGDNQPQVNLFSSTKSMMSVQNSGTQQQGNGLFQQGNEMMSLQSGNFLQQSSHSQAQLFHPQNPIADAQNLSQETQGSLFHSPNPIVHSQTSTTSSEQMQPPMFHSQSTIAVLQGSSVPQDQQSTNIFLSQSPMNNLQTNTVAQEAFFAAPNSISPLQSTSNSEQQAAFQQQAPISHIQTPMLSQEQAQPPQQGLFQPQVALGSLPPNPMPQSQQGTMFQSQHSIVAMQSNSPSQEQQQQQQQQQQQQQQQQQSILFSNQNTMATMASPKQPPPNMIFNPNQNPMANQEQQNQSIFHQQSNMAPMNQEQQPMQFQSQSTVSSLQNPGPTQSESSQTPLFHSSPQIQLVQGSPSSQEQQVTLFLSPASMSALQTSINQQDMQQSPLYSPQNNMPGIQGATSSPQPQATLFHNTAGGTMNQLQNSPGSSQQTSGMFLFGIQNN
notes: NFAT5 (TonEBP), human, 1531 a.a. protein; prion-like domain (PLD), a.a; 999-1454; The methods for the bacterial construct say only 'NFAT5 PLD'; also called GFP-NFAT5 PLD; not shown: sfGFP, N-terminal, kept
B4: untagged NFAT5 PLD (PLD protein lacking the GFP tag) (domain or fragment, human, UniProt O94916 999-1454, looked up)
chain: B3 chain
notes: NFAT5 (TonEBP), human, 1531 a.a. protein; prion-like domain (PLD), a.a; 999-1454; source: E. coli BL21 (DE3) pLysS, purified from inclusion bodies (8 M urea extraction, Superdex 200)

Target: the molecule itself
Test: in vitro phase separation (droplet) assay, fluorescence or brightfield microscopy; purified protein in droplet buffer (20 mM Na-HEPES pH 7.4, 1 mM TCEP) with 5% dextran, NaCl (or other salts) added to the indicated osmolarity; 10 min at room temperature; self-association into droplets

Binding result, binds:
B1
B2
B3
B4
